Reference: patent US20210253718A1 (MODMAB THERAPEUTICS, published 2021)

Experiments:
[1] = biological target: T1, FZD7 cysteine-rich domain (CRD), MYC-tagged and GPI-anchored on CHO cells (human, UniProt O75084 45-169); experiment: flow cytometry, CHO-CRD cells;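 further: flow cytometry of Fab binding to CHO cells overexpressing a Frizzled CRD, with binding defined as median fluorescence over twice that of CHO cells lacking any Frizzled CRD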
Description: (§1) Binding was measured via flow cytometry analysis of CHO cells overexpressing CRD of FZD1, FZD2, FZD3, FZD4, FZD5, FZD6, FZD7, FZD8, FZD9 or FZD10. Median fluorescence values are shown.

[2] = biological target: T2, FZD3 cysteine-rich domain (CRD), MYC-tagged and GPI-anchored on CHO cells (human, UniProt Q9NPG1 24-150, GPI anchor); experiment: flow cytometry, CHO-CRD cells;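 further: flow cytometry of Fab binding to CHO cells overexpressing a Frizzled CRD, with binding defined as median fluorescence over twice that of CHO cells lacking any Frizzled CRD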
T2 construct: domain: cysteine-rich domain (CRD); also called FZD3 CRD; CHO-myc-FZDGPI; not shown: MYC tag and GPI anchor signal
T2 sequence (looked up): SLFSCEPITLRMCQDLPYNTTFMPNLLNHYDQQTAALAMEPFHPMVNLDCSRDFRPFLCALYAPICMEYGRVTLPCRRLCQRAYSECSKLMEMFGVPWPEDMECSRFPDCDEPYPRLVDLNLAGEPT

[3] = biological target: T3, FZD2 cysteine-rich domain (CRD), MYC-tagged and GPI-anchored on CHO cells (human, UniProt Q14332 35-161); experiment: flow cytometry, CHO-CRD cells;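 further: flow cytometry of Fab binding to CHO cells overexpressing a Frizzled CRD, with binding defined as median fluorescence over twice that of CHO cells lacking any Frizzled CRD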
Description: as §1

[4] = biological target: T4, FZD9 cysteine-rich domain (CRD), MYC-tagged and GPI-anchored on CHO cells (human, UniProt O00144 35-161, GPI anchor); experiment: flow cytometry, CHO-CRD cells;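 further: flow cytometry of Fab binding to CHO cells overexpressing a Frizzled CRD, with binding defined as median fluorescence over twice that of CHO cells lacking any Frizzled CRD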
T4 construct: also called FZD9 CRD; CHO-myc-FZDGPI; not shown: MYC tag and GPI anchor signal
T4 sequence: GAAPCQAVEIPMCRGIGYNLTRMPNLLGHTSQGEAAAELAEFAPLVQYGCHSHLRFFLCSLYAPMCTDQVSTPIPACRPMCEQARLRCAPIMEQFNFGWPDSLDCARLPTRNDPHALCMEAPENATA

[5] = biological target: T5, FZD8 cysteine-rich domain (CRD), MYC-tagged and GPI-anchored on CHO cells (human, UniProt Q498S8 31-155 (rat entry), GPI anchor); experiment: flow cytometry, CHO-CRD cells
T5 construct: also called FZD8 CRD; CHO-myc-FZDGPI; not shown: MYC tag and GPI anchor signal
T5 sequence: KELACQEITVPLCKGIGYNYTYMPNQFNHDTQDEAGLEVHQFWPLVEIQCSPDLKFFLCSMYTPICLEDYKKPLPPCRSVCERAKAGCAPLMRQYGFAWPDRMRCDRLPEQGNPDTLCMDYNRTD

[6] = biological target: T6, FZD10 cysteine-rich domain (CRD), MYC-tagged and GPI-anchored on CHO cells (human, UniProt Q9ULW2 30-156, GPI anchor); experiment: flow cytometry, CHO-CRD cells
T6 construct: also called FZD10 CRD; CHO-myc-FZDGPI; not shown: MYC tag and GPI anchor signal
T6 sequence: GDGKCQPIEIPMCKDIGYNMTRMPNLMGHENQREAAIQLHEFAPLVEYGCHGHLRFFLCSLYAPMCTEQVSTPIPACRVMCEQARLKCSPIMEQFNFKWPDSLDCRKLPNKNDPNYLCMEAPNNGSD

[7] = biological target: T7, FZD4 cysteine-rich domain (CRD), MYC-tagged and GPI-anchored on CHO cells (human, UniProt Q9ULV1 42-167, GPI anchor); experiment: flow cytometry, CHO-CRD cells
T7 construct: also called FZD4 CRD; CHO-myc-FZDGPI; not shown: MYC tag and GPI anchor signal
T7 sequence: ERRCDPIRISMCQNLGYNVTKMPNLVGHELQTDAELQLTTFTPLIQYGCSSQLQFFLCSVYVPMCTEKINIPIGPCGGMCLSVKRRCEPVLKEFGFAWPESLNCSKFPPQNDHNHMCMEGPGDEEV

[8] = biological target: T8, FZD6 cysteine-rich domain (CRD), MYC-tagged and GPI-anchored on CHO cells (human, UniProt O60353 20-146, GPI anchor); experiment: flow cytometry, CHO-CRD cells
T8 construct: also called FZD6 CRD; CHO-myc-FZDGPI; not shown: MYC tag and GPI anchor signal
T8 sequence: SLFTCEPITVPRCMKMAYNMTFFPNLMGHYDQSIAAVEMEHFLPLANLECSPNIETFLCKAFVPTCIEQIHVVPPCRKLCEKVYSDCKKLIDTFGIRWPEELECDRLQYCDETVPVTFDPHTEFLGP

[9] = biological target: T9, FZD5 cysteine-rich domain (CRD), MYC-tagged and GPI-anchored on CHO cells (human, UniProt Q13467 29-156, GPI anchor); experiment: flow cytometry, CHO-CRD cells
T9 construct: also called FZD5 CRD; CHO-myc-FZDGPI; not shown: MYC tag and GPI anchor signal
T9 sequence: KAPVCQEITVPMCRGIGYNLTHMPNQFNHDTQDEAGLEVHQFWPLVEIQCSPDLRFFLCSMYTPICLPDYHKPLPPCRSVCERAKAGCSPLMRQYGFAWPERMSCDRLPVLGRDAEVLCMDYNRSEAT

[10] = biological target: T10, FZD1 cysteine-rich domain (CRD), MYC-tagged and GPI-anchored on CHO cells (human); experiment: flow cytometry, CHO-CRD cells
Description: as §1

[11] = biological target: T1, FZD7 cysteine-rich domain (CRD), …; experiment: immunofluorescence, CHO-CRD cells
[12] = biological target: T2, FZD3 cysteine-rich domain (CRD), …; experiment: immunofluorescence, CHO-CRD cells
[13] = biological target: T3, FZD2 cysteine-rich domain (CRD), …; experiment: immunofluorescence, CHO-CRD cells
[14] = biological target: T4, FZD9 cysteine-rich domain (CRD), …; experiment: immunofluorescence, CHO-CRD cells
[15] = biological target: T6, FZD10 cysteine-rich domain (CRD), …; experiment: immunofluorescence, CHO-CRD cells
[16] = biological target: T7, FZD4 cysteine-rich domain (CRD), …; experiment: immunofluorescence, CHO-CRD cells
[17] = biological target: T8, FZD6 cysteine-rich domain (CRD), …; experiment: immunofluorescence, CHO-CRD cells
[18] = biological target: T10, FZD1 cysteine-rich domain (CRD), …; experiment: immunofluorescence, CHO-CRD cells

Row | Binder | median fluorescence [1] | median fluorescence [2] | median fluorescence [3] | median fluorescence [4] | median fluorescence [5] | median fluorescence [6] | median fluorescence [7] | median fluorescence [8] | median fluorescence [9] | median fluorescence [10] | binding result [11] | binding result [12] | binding result [13] | binding result [14] | binding result [15] | binding result [16] | binding result [17] | binding result [18]
1 | Fab-2920 (Fab, V domains shown, Fab) VH: EVQLVESGGGLVQPGGSLRLSCAASGFNISYYYIHWVRQAPGKGLEWVASIYPSSGSTSYADSVKGRFTISADTSKNTAYLQMNSLRAEDTAVYYCARGGMDYWGQGTLVTVSS VL: DIQMTQSPSSLSASVGDRVTITCRASQSVSSAVAWYQQKPGKAPKLLIYSASSLYSGVPSRFSGSRSGTDFTLTISSLQPEDFATYYCQQWFAGALITFGQGTKVEIK | 4.91 | 3.75 | 4.57 | 2.89 | 7.5 | 2.94 | 4.22 | 3.02 | 28.6 | 5.73 | no binding | no binding | no binding | no binding | no binding | no binding | no binding | no binding
2 | Fab-2936 (Fab, V domains shown, Fab; also called Fv-2936) VH: EVQLVESGGGLVQPGGSLRLSCAASGFNISYYYMHWVRQAPGKGLEWVASIYSSSGSTSYADSVKGRFTISADTSKNTAYLQMNSLRAEDTAVYYCARAAMDYWGQGTLVTVSS VL: DIQMTQSPSSLSASVGDRVTITCRASQSVSSAVAWYQQKPGKAPKLLIYSASSLYSGVPSRFSGSRSGTDFTLTISSLQPEDFATYYCQQWYAASLITFGQGTKVEIK | 2.55 | 3 | 3.52 | 2.74 | 7.04 | 2.5 | 3.65 | 2.57 | 23.5 | 3.05 | no binding | no binding | no binding | no binding | no binding | no binding | no binding | no binding
3 | Fab-2924 (Fab, V domains shown, Fab; also called Fv-2924) VH: EVQLVESGGGLVQPGGSLRLSCAASGFNISYSYIHWVRQAPGKGLEWVASIYSYYSSTSYADSVKGRFTISADTSKNTAYLQMNSLRAEDTAVYYCARGALDYWGQGTLVTVSS VL: DIQMTQSPSSLSASVGDRVTITCRASQSVSSAVAWYQQKPGKAPKLLIYSASSLYSGVPSRFSGSRSGTDFTLTISSLQPEDFATYYCQQWYSGHSLITFGQGTKVEIK | 6.49 | 4.7 | 6.73 | 4.49 | 12.1 | 4.78 | 6.38 | 4.49 | 39.2 | 6.26 | no binding | no binding | no binding | no binding | no binding | no binding | no binding | no binding
4 | Fab-2926 (Fab, V domains shown, Fab; also called Fv-2926) VH: EVQLVESGGGLVQPGGSLRLSCAASGFNIYSSYMHWVRQAPGKGLEWVASIYPSSSSTSYADSVKGRFTISADTSKNTAYLQMNSLRAEDTAVYYCARGGLDYWGQGTLVTVSS VL: DIQMTQSPSSLSASVGDRVTITCRASQSVSSAVAWYQQKPGKAPKLLIYSASSLYSGVPSRFSGSRSGTDFTLTISSLQPEDFATYYCQQWYHGGSLFTFGQGTKVEIK | 2.71 | 4.61 | 6.21 | 3.65 | 12.9 | 2.92 | 6.73 | 3.05 | 34.6 | 7.17 | no binding | no binding | no binding | no binding | no binding | no binding | no binding | no binding
